{"source": "paper PMC11889887", "about": "(2025)", "key": {"[1]": {"target": "T1, biotinylated recombinant human αvβ8 integrin (human, UniProt P06756 31-1048; P26012 43-684, biotin (chain and site not stated) | biotin (chain and site not stated))", "T1 chain 1": "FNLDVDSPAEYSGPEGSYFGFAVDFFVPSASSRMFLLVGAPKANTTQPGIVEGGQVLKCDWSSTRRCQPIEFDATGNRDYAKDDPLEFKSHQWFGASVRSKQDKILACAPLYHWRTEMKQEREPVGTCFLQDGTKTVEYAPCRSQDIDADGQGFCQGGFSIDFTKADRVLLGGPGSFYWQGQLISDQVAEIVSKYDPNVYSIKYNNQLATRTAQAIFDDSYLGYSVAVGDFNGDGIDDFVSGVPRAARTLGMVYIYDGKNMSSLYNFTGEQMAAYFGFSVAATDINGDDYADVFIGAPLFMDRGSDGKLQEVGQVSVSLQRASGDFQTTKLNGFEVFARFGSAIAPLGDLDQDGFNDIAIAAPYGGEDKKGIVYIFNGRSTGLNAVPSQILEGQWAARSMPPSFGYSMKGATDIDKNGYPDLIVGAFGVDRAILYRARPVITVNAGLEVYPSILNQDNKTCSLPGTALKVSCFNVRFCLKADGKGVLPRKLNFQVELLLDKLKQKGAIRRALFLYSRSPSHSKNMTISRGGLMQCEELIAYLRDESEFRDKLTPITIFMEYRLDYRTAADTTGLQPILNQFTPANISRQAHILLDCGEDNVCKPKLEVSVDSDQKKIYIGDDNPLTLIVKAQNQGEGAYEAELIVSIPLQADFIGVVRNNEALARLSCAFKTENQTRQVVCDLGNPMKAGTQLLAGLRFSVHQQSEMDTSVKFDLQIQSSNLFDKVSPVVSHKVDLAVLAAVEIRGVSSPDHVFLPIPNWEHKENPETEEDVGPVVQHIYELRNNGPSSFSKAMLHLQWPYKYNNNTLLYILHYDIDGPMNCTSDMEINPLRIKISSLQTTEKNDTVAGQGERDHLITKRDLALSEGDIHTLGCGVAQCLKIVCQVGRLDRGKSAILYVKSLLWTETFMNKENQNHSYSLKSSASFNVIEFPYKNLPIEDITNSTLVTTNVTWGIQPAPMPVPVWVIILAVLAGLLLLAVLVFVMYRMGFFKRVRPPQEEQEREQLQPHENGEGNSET", "T1 chain 2": "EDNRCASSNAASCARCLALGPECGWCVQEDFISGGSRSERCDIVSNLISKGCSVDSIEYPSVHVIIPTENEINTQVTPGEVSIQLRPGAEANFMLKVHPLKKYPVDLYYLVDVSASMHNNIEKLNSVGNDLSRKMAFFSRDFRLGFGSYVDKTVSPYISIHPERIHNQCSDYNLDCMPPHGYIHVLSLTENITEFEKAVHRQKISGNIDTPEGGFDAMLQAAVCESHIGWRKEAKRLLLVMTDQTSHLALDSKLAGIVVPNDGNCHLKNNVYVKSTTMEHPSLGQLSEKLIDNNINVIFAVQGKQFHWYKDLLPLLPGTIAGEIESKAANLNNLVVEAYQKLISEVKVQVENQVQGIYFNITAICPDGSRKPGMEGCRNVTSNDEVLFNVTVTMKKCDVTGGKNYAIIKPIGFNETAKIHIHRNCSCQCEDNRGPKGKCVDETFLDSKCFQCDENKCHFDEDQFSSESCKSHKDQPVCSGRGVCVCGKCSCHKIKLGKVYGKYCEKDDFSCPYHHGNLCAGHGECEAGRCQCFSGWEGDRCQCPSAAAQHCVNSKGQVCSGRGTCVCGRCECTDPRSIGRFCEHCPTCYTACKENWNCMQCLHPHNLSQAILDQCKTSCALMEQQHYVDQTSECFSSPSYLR", "test": "ELISA; competition with latent TGFβ1"}, "[2]": {"target": "T2, biotinylated recombinant human αvβ6 integrin (human, UniProt P06756 31-1048; P18564 22-709, biotin (chain and site not stated) | biotin (chain and site not stated))", "T2 chain 1": "T1 chain 1", "T2 chain 2": "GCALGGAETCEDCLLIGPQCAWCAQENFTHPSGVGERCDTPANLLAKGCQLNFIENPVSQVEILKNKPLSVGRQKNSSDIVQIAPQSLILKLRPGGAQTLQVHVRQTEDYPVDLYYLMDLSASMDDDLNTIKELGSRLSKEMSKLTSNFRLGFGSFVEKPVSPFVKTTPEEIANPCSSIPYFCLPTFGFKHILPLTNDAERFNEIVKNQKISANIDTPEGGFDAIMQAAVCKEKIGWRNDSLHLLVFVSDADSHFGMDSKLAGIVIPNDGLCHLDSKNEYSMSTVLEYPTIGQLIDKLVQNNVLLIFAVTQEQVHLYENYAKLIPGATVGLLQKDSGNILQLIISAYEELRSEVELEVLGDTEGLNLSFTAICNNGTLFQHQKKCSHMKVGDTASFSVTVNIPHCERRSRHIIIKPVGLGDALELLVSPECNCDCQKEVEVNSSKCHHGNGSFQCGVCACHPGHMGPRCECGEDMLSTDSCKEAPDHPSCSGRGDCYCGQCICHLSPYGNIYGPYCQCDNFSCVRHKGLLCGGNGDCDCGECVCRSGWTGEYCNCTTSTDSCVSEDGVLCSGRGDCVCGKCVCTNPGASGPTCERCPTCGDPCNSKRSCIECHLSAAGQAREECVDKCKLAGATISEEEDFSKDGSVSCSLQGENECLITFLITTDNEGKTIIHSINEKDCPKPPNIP", "test": "ELISA; competition with latent TGFβ1"}}, "note": "Bridge positions count the residues as written; N and C are the ends. Square brackets hold non-standard residues; d marks the D form. Ends that are not written are not given here. Lys(N3) = [N-]=[N+]=NCCCC[C@H](N)C(=O)O; Pra = C#CC[C@H](N)C(=O)O"}
{"binder": "CFETLRGDLRILSILR[Pra]QNL[Lys(N3)]KELQD-NH2 (triazole 17-21)", "note": "[peptide 5a (chromogranin A-derived peptide)]", "values": [{"measurement": "Ki", "setting": "[1]", "value": 2.74, "unit": "nM"}, {"measurement": "Ki", "setting": "[2]", "value": 0.139, "unit": "nM"}]}
